System: Escherichia coli TOP10
Experiment: shrunken log2 fold change of peptide-encoding DNA abundance (4.5 h post-induction vs induction); higher = less antimicrobial activity (less host growth inhibition)
Settings: time post-induction: 4.5 h; library: site-saturation at positions 5, 18, 19, 20
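Further: peptides expressed intracellularly from a pBAD plasmid library in pooled LB shake-flask culture, induced with 0.3% L-arabinose, DNA abundance read by NGS, three biological replicates, DESeq2 with apeglm shrinkage.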

| Sequence | shrunken log2 fold change |
| --- | --- |
| RRIRSRPPRLPRPRPRPIRSPRP | 0.0127 |
| RRIRTRPPRLPRPRPRPQADPRP | -0.297 |
| RRIRERPPRLPRPRPRPEHLPRP | 0.0163 |
| RRIRGRPPRLPRPRPRPATYPRP | 0.235 |
| RRIRHRPPRLPRPRPRPSPTPRP | 0.0862 |
| RRIRTRPPRLPRPRPRPSYKPRP | -0.594 |
| RRIRVRPPRLPRPRPRPFQYPRP | -0.453 |
| RRIRNRPPRLPRPRPRPCCNPRP | -0.432 |
| RRIRHRPPRLPRPRPRPLQQPRP | 0.0446 |
| RRIRNRPPRLPRPRPRPDQAPRP | -0.01 |
| RRIRQRPPRLPRPRPRPTWFPRP | 0.104 |
| RRIRMRPPRLPRPRPRPREHPRP | 0.402 |
| RRIRRRPPRLPRPRPRPMACPRP | -0.0812 |
| RRIRIRPPRLPRPRPRPWFNPRP | -1.25 |
| RRIRDRPPRLPRPRPRPALGPRP | 0.933 |
| RRIRHRPPRLPRPRPRPSRYPRP | -1 |
| RRIRARPPRLPRPRPRPLHFPRP | 0.211 |
| RRIRPRPPRLPRPRPRPSMSPRP | -0.409 |
| RRIRPRPPRLPRPRPRPCWHPRP | -0.261 |
| RRIRTRPPRLPRPRPRPKTDPRP | -0.158 |
| RRIRPRPPRLPRPRPRPNHNPRP | -0.755 |
| RRIRTRPPRLPRPRPRPKHFPRP | -0.0888 |
| RRIRTRPPRLPRPRPRPPSVPRP | 0.352 |
| RRIRERPPRLPRPRPRPVYAPRP | -0.288 |
| RRIRCRPPRLPRPRPRPLPIPRP | -0.0776 |

| Sequence | shrunken log2 fold change |
| --- | --- |
| RRIRCRPPRLPRPRPRPRMKPRP | 0.0252 |
| RRIRPRPPRLPRPRPRPGDEPRP | 0.156 |
| RRIRMRPPRLPRPRPRPADCPRP | 0.918 |
| RRIRLRPPRLPRPRPRPKDIPRP | -0.23 |
| RRIRCRPPRLPRPRPRPSAWPRP | 0.0978 |
| RRIRTRPPRLPRPRPRPFYAPRP | -0.301 |
| RRIRNRPPRLPRPRPRPEDEPRP | -0.0168 |
| RRIRQRPPRLPRPRPRPGCGPRP | 0.442 |
| RRIRQRPPRLPRPRPRPKTKPRP | -0.254 |
| RRIRTRPPRLPRPRPRPHVYPRP | -0.496 |
| RRIRMRPPRLPRPRPRPKNHPRP | 0.412 |
| RRIRRRPPRLPRPRPRPTHPPRP | 0.543 |
| RRIRLRPPRLPRPRPRPAMMPRP | -0.221 |
| RRIRIRPPRLPRPRPRPCDDPRP | -0.395 |
| RRIRKRPPRLPRPRPRPHHTPRP | -0.254 |
| RRIRSRPPRLPRPRPRPMGHPRP | -0.256 |
| RRIRGRPPRLPRPRPRPNIDPRP | 0.644 |
| RRIRDRPPRLPRPRPRPFYEPRP | -0.262 |
| RRIRPRPPRLPRPRPRPIKVPRP | -0.468 |
| RRIRKRPPRLPRPRPRPRDDPRP | 0.365 |
| RRIRRRPPRLPRPRPRPDFRPRP | 0.118 |
| RRIRDRPPRLPRPRPRPPEVPRP | 0.705 |
| RRIRNRPPRLPRPRPRPEGTPRP | 0.105 |
| RRIRRRPPRLPRPRPRPRNCPRP | -0.0356 |
| RRIRLRPPRLPRPRPRPCNTPRP | -0.186 |

| Sequence | shrunken log2 fold change |
| --- | --- |
| RRIRDRPPRLPRPRPRPHDFPRP | -0.00663 |
| RRIRDRPPRLPRPRPRPKAQPRP | -0.1 |
| RRIRFRPPRLPRPRPRPKSVPRP | 0.0124 |
| RRIRHRPPRLPRPRPRPESSPRP | 0.087 |
| RRIRWRPPRLPRPRPRPMYTPRP | 0.0906 |
| RRIRMRPPRLPRPRPRPMEQPRP | 1.29 |
| RRIRDRPPRLPRPRPRPNNEPRP | -0.526 |
| RRIRDRPPRLPRPRPRPIWWPRP | 0.498 |
| RRIRLRPPRLPRPRPRPMTTPRP | 0.0748 |
| RRIRDRPPRLPRPRPRPRFTPRP | 0.21 |
| RRIRIRPPRLPRPRPRPQSAPRP | 0.0313 |
| RRIRLRPPRLPRPRPRPKWFPRP | 0.154 |
| RRIRVRPPRLPRPRPRPCSPPRP | -0.137 |
| RRIRKRPPRLPRPRPRPSHSPRP | -0.47 |
| RRIRSRPPRLPRPRPRPRRPPRP | 0.364 |
| RRIRRRPPRLPRPRPRPFETPRP | -0.207 |
| RRIRARPPRLPRPRPRPDGHPRP | 0.0106 |
| RRIRIRPPRLPRPRPRPGQDPRP | -0.165 |
| RRIRCRPPRLPRPRPRPMPQPRP | 0.202 |
| RRIRHRPPRLPRPRPRPHCMPRP | -0.0295 |
| RRIRMRPPRLPRPRPRPAVAPRP | 1.04 |
| RRIRLRPPRLPRPRPRPVPNPRP | 0.0119 |
| RRIRERPPRLPRPRPRPVGKPRP | -0.309 |
| RRIRKRPPRLPRPRPRPAMWPRP | 0.241 |
| RRIRKRPPRLPRPRPRPWRWPRP | 0.595 |

| Sequence | shrunken log2 fold change |
| --- | --- |
| RRIRFRPPRLPRPRPRPQSEPRP | 0.00741 |
| RRIRFRPPRLPRPRPRPSDKPRP | -0.355 |
| RRIRARPPRLPRPRPRPIRVPRP | 0.125 |
| RRIRDRPPRLPRPRPRPCYIPRP | 0.0176 |
| RRIRERPPRLPRPRPRPFSYPRP | -0.0589 |
| RRIRPRPPRLPRPRPRPSLSPRP | 0.022 |
| RRIRIRPPRLPRPRPRPIIHPRP | -0.667 |
| RRIRLRPPRLPRPRPRPCTDPRP | -0.199 |
| RRIRARPPRLPRPRPRPSEDPRP | 0.396 |
| RRIRFRPPRLPRPRPRPSCRPRP | -0.145 |
| RRIRDRPPRLPRPRPRPSKHPRP | -0.263 |
| RRIRLRPPRLPRPRPRPIVQPRP | -1.06 |
| RRIRQRPPRLPRPRPRPTTCPRP | 0.106 |
| RRIRQRPPRLPRPRPRPQPPPRP | 0.194 |
| RRIRVRPPRLPRPRPRPDKQPRP | -0.284 |
| RRIRSRPPRLPRPRPRPTAEPRP | 0.825 |
| RRIRIRPPRLPRPRPRPWWHPRP | -0.218 |
| RRIRARPPRLPRPRPRPGYGPRP | 0.277 |
| RRIRCRPPRLPRPRPRPPAAPRP | 1.78 |
| RRIRFRPPRLPRPRPRPHLTPRP | -0.226 |
| RRIRVRPPRLPRPRPRPAENPRP | 0.15 |
| RRIRGRPPRLPRPRPRPHAPPRP | 1.23 |
| RRIRWRPPRLPRPRPRPTETPRP | 0.0028 |
| RRIRHRPPRLPRPRPRPYTDPRP | -0.000921 |
| RRIRARPPRLPRPRPRPDWKPRP | -0.108 |

| Sequence | shrunken log2 fold change |
| --- | --- |
| RRIRERPPRLPRPRPRPQKRPRP | 0.462 |
| RRIRPRPPRLPRPRPRPPLSPRP | 0.161 |
| RRIRLRPPRLPRPRPRPLTVPRP | 0.127 |
| RRIRNRPPRLPRPRPRPSFIPRP | -0.934 |
| RRIRKRPPRLPRPRPRPTIEPRP | 0.236 |
| RRIRVRPPRLPRPRPRPYQVPRP | -0.293 |
| RRIRGRPPRLPRPRPRPPCVPRP | 1.15 |
| RRIRCRPPRLPRPRPRPTICPRP | -0.142 |
| RRIRQRPPRLPRPRPRPECTPRP | 0.0484 |
| RRIRFRPPRLPRPRPRPRVFPRP | 0.232 |
| RRIRFRPPRLPRPRPRPSRFPRP | -0.0395 |
| RRIRMRPPRLPRPRPRPPDFPRP | 0.549 |
| RRIRHRPPRLPRPRPRPKCDPRP | -0.0608 |
| RRIRCRPPRLPRPRPRPRVTPRP | 0.23 |
| RRIRSRPPRLPRPRPRPCIWPRP | -0.121 |
| RRIRMRPPRLPRPRPRPQHFPRP | 0.00913 |
| RRIRCRPPRLPRPRPRPFWMPRP | -0.176 |
| RRIRFRPPRLPRPRPRPKPQPRP | 0.384 |
| RRIRLRPPRLPRPRPRPHVNPRP | -0.105 |
| RRIRHRPPRLPRPRPRPCGRPRP | -0.0197 |
| RRIRNRPPRLPRPRPRPKNIPRP | -0.483 |
| RRIRYRPPRLPRPRPRPHNNPRP | -1.16 |
| RRIRDRPPRLPRPRPRPVPSPRP | 0.314 |
| RRIRWRPPRLPRPRPRPCQAPRP | 0.201 |
| RRIRMRPPRLPRPRPRPYNHPRP | -0.491 |
